{"source": "the DeepSol protein solubility set"}
{"assay": "soluble on expression in E. coli; label from the status in PepcDB or PDB records"}
{"sequence": "MSLILYDYFRSTACYRVRIALNLKKIAYEKIEVHLVNNGGEQHSLQYHQINPQELVPSLDINGQILSQSMAIIDYLEEIHPEMPLLPKDPFMKATLKSMALIVACDMHPLNNLRVLNRLKEQFNANEEQVLEWYHHWLKTGFDAFEEKLGALERDKPVCFGSEVGLADVCLIPQVYNAHRFHFDMASYPIINEINEYCLTLPAFHDAAPEAISSEGHHHHHH", "soluble on expression in E. coli": "soluble"}
{"sequence": "MSLGHPVDTFRRENKALRESAARLQKAMNGVLETADDGDASARLLEWRQALNELQDVDKHYQRKEHLLSTCLERHGITGPSKVMWGKDDQIRELLKDTSVALRQSDTSVAELKVLAATTGAAAAGAVHEMIYKEEQILLPICLERFTADEWAEIWASSPRYGWCLVEPRQGYKPFTSEAAGRASVDGGVSLPTGALALEQLIAIFSTLPVDLTFVDANDRVAFFSEGPSRVFARSRTIVGRMVQNCHPPRSVDVVERILSDFREGRQNVAEFWLQFVGRFVHIRYFAVRSEDGRYLGTLEVTQDVGPIRALEGERRLLEYAEPSEGHHHHHH", "soluble on expression in E. coli": "not soluble"}
{"sequence": "MDADEGQDMSQVSGKESPPVSDTPDEGDEPMPIPEDLSTTSGGQQSSKSDRVVASNVKVETQSDEENGRACEMNGEECAEDLRMLDASGEKMNGSHRDQGSSALSGVGGIRLPNGKLKCDICGIICIGPNVLMVHKRSHTGERPFQCNQCGASFTQKGNLLRHIKLHSGEKPFKCHLCNYACRRRDALTGHLRTHSVIKEETNHSEMAEDLCKIGSERSLVLDRLASNVAKRKSSMPQKFLGDKGLSDTPYDSSASYEKENEMMKSHVMDQAINNAINYLGAESLRPLVQTPPGGSEVVPVISPMYQLHKPLAEGTPRSNHSAQDSAVENLLLLSKAKLVPSEREASPSNSCQDSTDTESNNEEQRSGLIYLTNHIAPHARNGLSLKEEHRAYDLLRAASENSQDALRVVSTSGEQMKVYKCEHCRVLFLDHVMYTIHMGCHGFRDPFECNMCGYHSQDRYEFSSHITRGEHRFHMS", "soluble on expression in E. coli": "not soluble"}
{"sequence": "MAITVSIELNRDLEIPASYDEVFDLLADVPKSASHFPKVDKLVDLGNNAYRWEMEKVGVDKHAIQSVYACTYHADKEAGKITWSPIKGEGNGVVSGSWTLSAKGDNATAVKFQTSAELTVPLPSLLKLAISPVIKHEFNSLVDTYMANLKKAFLEHHHHHH", "soluble on expression in E. coli": "soluble"}
{"sequence": "MGSDKIHHHHHHMADTAPQLKRKREQEAEEAETPSTEEKEAGVGNGTSAPVRLPFSGFRVQKVLRESARDKIIFLHGKVNEDSGDTHGEDAVVILEKTPFQVEHVAQLLTGSPELKLQFSNDIYSTYNLFPPRHLSDIKTTVVYPATEKHLQKYMRQDLRLIRETGDDYRTITLPYLESQSLSIQWVYNILDKKAEADRIVFENPDPSDGFVLIPDLKWNQQQLDDLYLIAICHRRGIRSLRDLTPEHLPLLRNILREGQEAILKRYQVTGDRLRVYLHYLPSYYHLHVHFTALGFEAPGSGVERAHLLAQVIENLECDPKHYQQRTLTFALRTDDPLLQLLQKAQQERN", "soluble on expression in E. coli": "soluble"}
{"sequence": "MLRYFRAFLPKEERFFDLFAQHTHTVVQGAQALQDMLRGGDETLVHCQRVSHFESEADNITREVLTAVRRTFITPFDRVDIKNLITSMDDAIDQMQQTAKAVILFEVREFEPPMREIGTLLVESANLVGRAVPLMQSIGPNLQMLTAMTEEITKLEGRVDDLHDIGLKELFLKHRNANTMDYIVGAEIYDHLEKVADRFDDVANEINSIVIEQVAAALEHHHHHH", "soluble on expression in E. coli": "soluble"}
{"sequence": "MCELLGMSANVPTDICFSFTGLVQRGGGTGPHKDGWGITFYEGKGCRTFKDPQPSFNSPIAKLVQDYPIKSCSVVAHIRQANRGEVALENTHPFTRELWGRNWTYAHNGQLTGYKSLETGNFRPVGETDSEKAFCWLLHKLTQRYPRTPGNMAAVFKYIASLADELRAKGVFNMLLSDGRYVMAYCSTNLHWITRRAPFGVATLLDQDVEIDFSSQTTPNDVVTVIATQPLTGNETWQKIMPGEWRLFCLGERVV", "soluble on expression in E. coli": "not soluble"}
{"sequence": "MGSDKIHHHHHHMTRKQFETLDLDNLEQNLQQAAELIAGRIRAIACDPVKQNISFEELAAIIPCDLPDEGHGPEAVIGEVARHIEPYSTRIGHPRFLAWITTSPGPAGTIGDMLCTGLNQAPLSFKGGPAATVLEEIVLGWFAGMFGMPEGWGGTIVSGGTMANLMGLTVARRVHAPQVHARGMQGLERPLVLYVSDQGHMSVTRSAVLLGIGEDNVRAVPSDSACRMIPHELEKAVQQDRRAGRLPFCVVAQAGSVTTGAVDPLPDIAAICRRENMWMHVDAAYGGAVMLADELRPLLAGIELADSVCVDPHKWFFVPLECGITLFRSREQQLETFRAKAAYLGAENPHDLKNTTFILSRANRALKVWFAFRSYGRLRIARIIRRNMELARQLYRLMCDHPEWEPLAPAPLSIVCGRYTPSAAVRGGWTEQQIDDLQLQMIEELERSGTALLTPAAVNGRAGVRVCIANHRTTPEDITLIFNTLTAIGTRIARPDEHETAGE", "soluble on expression in E. coli": "not soluble"}
{"sequence": "MLRDLRETDVKAICDINQEALGYTFSPEETASQLARLSQDSHHFLLGYEDAANHVLLGYVHAEVYESLYSKAGFNILALAVSPQAQGQGIGKSLLQGLEEEAKRCGYGFIRLNSANHRLGAHAFYEKVGYTCDKMQKRFIRIC", "soluble on expression in E. coli": "not soluble"}
{"sequence": "FISSRANVDDLKSIENKSDFVATENMPNYVKGAFISMEDERFYKHHGFDIKGTTRALFSTISDRDVQGGSTITQQVVKNYYYDNERSFTRKIKELFVARKVEKQYSKNQILSFYMNNIYYGDNQYTVEGAANHYFGVTVDKNNSNMSQISVLQSAILASKVNAPSVYD", "soluble on expression in E. coli": "not soluble"}
{"sequence": "MGSSHHHHHHSQDPNSLEVLFQGPMAGGRDRGDLAARQLVFLLPEHLKDASKKKKKSSLLFVKLANPHSGEGATYLIDMCLQQLFEIKVFKEKHHSWFINQSVQSGGLLHFATPMDPLFLLLHYLLKAGKEGKYQPLDQVVVDDTFPDCTLLLRFPELEKSLRHVTEEKEVNSKKYYKYSSEKTLKWLEKKVNQTVVALKANNVNVGARVQSSAYFSGGQVSRDKEEDYVRYAHGLISDYIPKELSDDLSKFLKLPEPPASLPNPPSKKLKLSDEPVEAKEDYTKFNTKDLKTGKKNSKMTAAQKALAKVDKSGMKSIDAFFGAKNKKTGKI", "soluble on expression in E. coli": "soluble"}
{"sequence": "MSASAPAAEGEGTPTQPASEKEPEMPGPREESEEEEDEDDEEEEEEEKEKSLIVEGKREKKKVERLTMQVSSLQREPFTIAQGKGQKLCEIERIHFFLSKKKTDELRNLHKLLYNRPGTVSSLKKNVGQFSGFPFEKGSVQYKKKEEMLKKFRNAMLKSICEVLDLERSGVNSELVKRILNFLMHPKPSGKPLPKSKKTCSKGSKKERNSSGMARKAKRTKCPEILSDESSSDEDEKKNKEESSDDEDKESEEEPPKKTAKREKPKQKATSKSKKSVKSANVKKADSSTTKKNQNSSKKESESEDSSDDEPLIKKLKKPPTDEELKETIKKLLASANLEEVTMKQICKKVYENYPTYDLTERKDFIKTTVKELIS", "soluble on expression in E. coli": "soluble"}
{"sequence": "MGSDKIHHHHHHMQNATLPLPLQSPLLAASGENRVRHGFFTRQGGVSEGLYQGLNVGLGSHDEPEKVQENRRRVTQWFGLSADRLATVHQVHSPDVVVVDDNYDGNRPQADAMVTATPGFVLGVLSADCGPILFADAQAGVVGAAHAGWKGALFGVLENTIEAMVKLGASRERIAASLGPSISQDNYEVGPEYVARFTDIDPAYADYFAATERQGHALFDLKQFTIDRLTKAGVKAENLGLCTYPDEHRFYSYRRTTHRAEPDYGRQISAIAILED", "soluble on expression in E. coli": "not soluble"}
{"sequence": "MGSDKIHHHHHHMKPVVVMTQTNDMQSDLVSIIHKPFIDIKPLNFDIHLLNQRYDWLIFSSKNAVKFFYKYLKGINVDNIAVIGSKTAQYCESLGIRVDFMPNDFSQEGFLKSFNQTNQKILLPSSELARPLLLAALSKDNEVVKIDLYTSVPNKQNIQDVKEMIEHQQIDALTFSSSSAVRYYFNEGFVPKFKSYFAIGEQTARTIKTYQQPVTIAEIQTLESLIEKILESRG", "soluble on expression in E. coli": "not soluble"}
{"sequence": "MLLPTPEDLKKRRNELGLTQSDLAKRAGVSQPLIARIESGDVDPRLSTVRKILDAFEEAEKERQILIRDLMHSPVLHVSPEDSVEEVVNLMHVHGFSQIPVLDRGIPVGSVSEDMIVRLMGESKKKPISQLKVSGIMGESFPTVSPGISISVVSHILEGNPAVLVVEKGTVVGVVTKHDVMKLLQGQ", "soluble on expression in E. coli": "not soluble"}
